Reference: article PMC6538746, “Rice transcription factor OsMADS57 regulates plant height by modulating gibberellin catabolism”

Biological target: OsMADS57 (Oryza sativa, UniProt Q6Z6W2 1-241)
Test: EMSA; competed by unlabeled probe; LightShift Chemiluminescent EMSA Kit (Thermo); buffer, salt, pH and temperature not stated
Conditions: protein: recombinant; tags: His (pET32a(+) vector-encoded tags); chain copies: 2; label: biotin 3' end; blunt

Chain of OsMADS57 (Q6Z6W2 whole entry): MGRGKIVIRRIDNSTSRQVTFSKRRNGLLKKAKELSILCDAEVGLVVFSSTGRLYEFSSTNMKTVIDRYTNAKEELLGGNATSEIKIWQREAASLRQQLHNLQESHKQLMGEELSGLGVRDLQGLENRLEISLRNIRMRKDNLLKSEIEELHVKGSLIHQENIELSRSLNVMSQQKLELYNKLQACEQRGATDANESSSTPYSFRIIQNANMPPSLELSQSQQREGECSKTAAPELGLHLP

Binder	binding result
EUI1 promoter CArG probe (dsDNA) DNA 1: GCCTTTCCCTTTGTTACTGTTGCATATAAAAGATCATCAATGT DNA 2: ACATTGATGATCTTTTATATGCAACAGTAACAAAGGGAAAGGC	binds
OsGA2ox3 promoter CArG probe (dsDNA) DNA 1: TAGCACGAGGGAAAACCCTTTAAAAAGACAGACAAGGCAGACG DNA 2: CGTCTGCCTTGTCTGTCTTTTTAAAGGGTTTTCCCTCGTGCTA	binds
